Measured values reported in US20100322937A1 (published 2010).

Assays:
[1] = target: T1, Y^246D EGFR (full-length human, FLAG tag) on BaF/3 cells (human, UniProt P00533 25-1210); assay: calculated from Scatchard Kd and Bmax
T1 construct: whole, on cells
Experimental: (§1) Ligand binding to cells expressing the wt or mutant EGFR was determined at room temperature in the presence of the internalization inhibitor phenylarsine oxide (PAO) (29) by cold saturation experiments. […] All experimental points were prepared in triplicate. At the end of the incubation, the cells were pelleted and washed twice in ice-cold PBS before transferring to fresh tubes for counting in a Wallac WIZARD γ-counter (PerkinElmer, Boston, Mass.). Scatchard plots and estimates of ligand binding affinities and receptor numbers were obtained using the Radlig program (BioSoft, Cambridge, UK).
(§2) The data are representative of at least three separate experiments

[2] = target: T2, Y^246W EGFR (full-length human, FLAG tag) on BaF/3 cells (human, UniProt P00533 25-1210); assay: calculated from Scatchard Kd and Bmax
T2 construct: whole, on cells
Experimental: as §1, §2

[3] = target: T3, Y^246F EGFR (full-length human, FLAG tag) on BaF/3 cells (human, UniProt P00533 25-1210); assay: calculated from Scatchard Kd and Bmax
T3 construct: whole, on cells
Experimental: as §1, §2

[4] = target: T4, wtEGFR: full-length human EGFR with FLAG tag after the leader, on BaF/3 cells (human, UniProt P00533 25-1210); assay: calculated from Scatchard Kd and Bmax
T4 construct: whole, on cells; BaF/3 cells have no endogenous EGF receptors; also called wtEGFR-BaF/3
Experimental: as §1, §2

[5] = target: T5, D^563H EGFR (full-length human, FLAG tag) on BaF/3 cells (human, UniProt P00533 25-1210); assay: calculated from Scatchard Kd and Bmax
T5 construct: whole, on cells
Experimental: as §1, §2

[6] = target: T6, E^578C EGFR (full-length human, FLAG tag) on BaF/3 cells (human, UniProt P00533 25-1210); assay: calculated from Scatchard Kd and Bmax
T6 construct: whole, on cells
Experimental: as §1, §2

[7] = target: T7, V^583D EGFR (full-length human, FLAG tag) on BaF/3 cells (human, UniProt P00533 25-1210); assay: calculated from Scatchard Kd and Bmax
T7 construct: whole, on cells
Experimental: as §1, §2

[8] = target: T1, Y^246D EGFR (full-length human, FLAG …); assay: cell-based or functional assay
[9] = target: T2, Y^246W EGFR (full-length human, FLAG …); assay: cell-based or functional assay
[10] = target: T3, Y^246F EGFR (full-length human, FLAG …); assay: cell-based or functional assay
[11] = target: T4, wtEGFR: full-length human EGFR with …; assay: cell-based or functional assay
[12] = target: T5, D^563H EGFR (full-length human, FLAG …); assay: cell-based or functional assay
[13] = target: T6, E^578C EGFR (full-length human, FLAG …); assay: cell-based or functional assay
[14] = target: T7, V^583D EGFR (full-length human, FLAG …); assay: cell-based or functional assay
[15] = target: T1, Y^246D EGFR (full-length human, FLAG …); assay: Scatchard, 125I-EGF on BaF/3 cells, Kd2 (low-affinity site)
Experimental: as §1
(§3) Data were analyzed using the “Kell for Windows” RadLig program. ^{(a)}Number of receptors per cell were calculated from the Bₘₐₓ and the number of cells/tube in each ligand binding experiment.

[16] = target: T2, Y^246W EGFR (full-length human, FLAG …); assay: as above
Experimental: as §1, §3

[17] = target: T3, Y^246F EGFR (full-length human, FLAG …); assay: as above
Experimental: as §1, §3

[18] = target: T4, wtEGFR: full-length human EGFR with …; assay: as above
Experimental: as §1, §3

[19] = target: T5, D^563H EGFR (full-length human, FLAG …); assay: as above
Experimental: as §1, §3

[20] = target: T6, E^578C EGFR (full-length human, FLAG …); assay: as above
Experimental: as §1, §3

[21] = target: T8, L^245C/E^578C EGFR (full-length human, FLAG tag) on BaF/3 cells (human, UniProt P00533 25-1210); assay: as above
T8 construct: whole, on cells
Experimental: as §1, §3

[22] = target: T7, V^583D EGFR (full-length human, FLAG …); assay: as above
Experimental: as §1, §3

[23] = target: T4, wtEGFR: full-length human EGFR with …; assay: Scatchard, 125I-EGF on BaF/3 cells, Kd1 (high-affinity site)
Experimental: as §1, §3

[24] = target: T5, D^563H EGFR (full-length human, FLAG …); assay: as above
Experimental: as §1, §3

[25] = target: T7, V^583D EGFR (full-length human, FLAG …); assay: as above
Experimental: as §1, §3

[26] = target: T1, Y^246D EGFR (full-length human, FLAG …); assay: Scatchard, 125I-EGF on BaF/3 cells
Experimental: as §1, §3

[27] = target: T2, Y^246W EGFR (full-length human, FLAG …); assay: Scatchard, 125I-EGF on BaF/3 cells
Experimental: as §1, §3

[28] = target: T3, Y^246F EGFR (full-length human, FLAG …); assay: Scatchard, 125I-EGF on BaF/3 cells
Experimental: as §1, §3

[29] = target: T4, wtEGFR: full-length human EGFR with …; assay: Scatchard, 125I-EGF on BaF/3 cells
Experimental: as §1, §3

[30] = target: T5, D^563H EGFR (full-length human, FLAG …); assay: Scatchard, 125I-EGF on BaF/3 cells
Experimental: as §1, §3

[31] = target: T6, E^578C EGFR (full-length human, FLAG …); assay: Scatchard, 125I-EGF on BaF/3 cells
Experimental: as §1, §3

[32] = target: T8, L^245C/E^578C EGFR (full-length human, …); assay: Scatchard, 125I-EGF on BaF/3 cells
Experimental: as §1, §3

[33] = target: T7, V^583D EGFR (full-length human, FLAG …); assay: Scatchard, 125I-EGF on BaF/3 cells
Experimental: as §1, §3

[EGF] at which 500R/cell are occupied [1]: 400 pM | [EGF] at which 500R/cell are occupied [2]: 60 pM | [EGF] at which 500R/cell are occupied [3]: 30 pM | [EGF] at which 500R/cell are occupied [4]: 16 pM | [EGF] at which 500R/cell are occupied [5]: 8 pM | [EGF] at which 500R/cell are occupied [6]: 80 pM | [EGF] at which 500R/cell are occupied [7]: < 1 pM | % maximal incorporation ([^3H]Thymidine) [8]: 0% | % maximal incorporation ([^3H]Thymidine) [9]: 0% | % maximal incorporation ([^3H]Thymidine) [10]: 16% | EC50 for EGF ([^3H]Thymidine incorporation) [10]: 0.03 nM | % maximal incorporation ([^3H]Thymidine) [11]: 100% | EC50 for EGF ([^3H]Thymidine incorporation) [11]: 0.012 nM | % maximal incorporation ([^3H]Thymidine) [12]: 90% | EC50 for EGF ([^3H]Thymidine incorporation) [12]: 0.005 nM | % maximal incorporation ([^3H]Thymidine) [13]: 100% | EC50 for EGF ([^3H]Thymidine incorporation) [13]: 0.1 nM | % maximal incorporation ([^3H]Thymidine) [14]: 100% | EC50 for EGF ([^3H]Thymidine incorporation) [14]: 0.006 nM | Kd [15]: 2.1 nM | Kd [16]: 2.5 nM | Kd [17]: 2.8 nM | Kd [18]: 1.6 nM | Kd [19]: 1.7 nM | Kd [20]: 1.7 nM | Kd [21]: 2.1 nM | Kd [22]: 1.3 nM | Kd [23]: 0.029 nM | Kd [24]: 0.0176 nM | Kd [25]: 0.0026 nM | % of sites (Kd2) [26]: 100% | R/cell (from Bmax) [26]: 12000 receptors/cell | % of sites (Kd2) [27]: 100% | R/cell (from Bmax) [27]: 29000 receptors/cell | % of sites (Kd2) [28]: 100% | R/cell (from Bmax) [28]: 30000 receptors/cell | % of sites (Kd1) [29]: 2.6% | % of sites (Kd2) [29]: 97.5% | R/cell (from Bmax) [29]: 34000 receptors/cell | % of sites (Kd1) [30]: 4.4% | % of sites (Kd2) [30]: 96.4% | R/cell (from Bmax) [30]: 23000 receptors/cell | % of sites (Kd2) [31]: 100% | R/cell (from Bmax) [31]: 34500 receptors/cell | % of sites (Kd2) [32]: 100% | % of sites (Kd1) [33]: 12.6% | % of sites (Kd2) [33]: 90.8% | R/cell (from Bmax) [33]: 38000 receptors/cell
B1: Murine EGF, purified from mouse submaxillary glands (ligand, UniProt P01132 977-1029, looked up)
chain: NSYPGCPSSYDGYCLNGGVCMHIESLDSYTCNCVIGYSGDRCQTRDLRWWELR
modifications: iodinated with 125I (Iodogen) as tracer in the Scatchard assays
notes: mature; also called ^125I-EGF
